{
  "source": "paper PMC6522849",
  "system": "T1, BsrR (Enterococcus faecium NW2), ORF:b1c0129b",
  "T1 sequence": "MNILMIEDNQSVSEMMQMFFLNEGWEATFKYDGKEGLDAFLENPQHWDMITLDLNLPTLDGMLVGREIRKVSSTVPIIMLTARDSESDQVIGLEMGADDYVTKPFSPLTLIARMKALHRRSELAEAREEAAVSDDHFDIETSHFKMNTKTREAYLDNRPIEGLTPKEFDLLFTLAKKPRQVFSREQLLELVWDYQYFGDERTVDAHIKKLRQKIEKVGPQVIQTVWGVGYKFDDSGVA",
  "experiment": "EMSA",
  "data": [
    {"sequence": "AAATAAAACTCCTTTTTTATTGGAATAAGTTTATCTTAACAAAGAATGAACAAAAGACAAACCTTTCGTGAAGAATTCCTGAACATATTGGTTCAGTCAACAATTTAGAGTATACTATAAGAAGAGAATTTAGGAGGGAAAGA (double strand) [bsrX upstream intergenic region, 143 bp]", "values": [
      {"measurement": "binding", "value": "binds"}
    ]}
  ]
}
